Results published in the DeepSol protein solubility set.

Assay: soluble on expression in E. coli; label from the status in PepcDB or PDB records

Sequence | soluble on expression in E. coli
MGSDKIHHHHHHMTIDTNFSKWFLQPSKESAQMYETVMQRALTLVVEHMKEAANPFSGADRHSIQQAVKDAAFISYSGEPIDGVIRAIQEGVMKHSLWISHPSAMAHLHCPPLLPSLVAEVVINALNQSMDSWDQSPSATYVETELLRFFTRSIGYSDLGDGVFTSGGTQSNYMGMLLARNKICESAFATNVQEEGLPVDARKLRILCSQEAHFSVQKSAAQLGLGANAVVQVATNERQQLCVNETRQTINELRLKGLIPFMIVATAGTTDFGSIDKLREIAELAREQELWLHVDAAYGGALLFSRQYGHLLNGLHLADSITIDFHKFYYQSISCGAFFVKDRHEFERIRFHADYLNPEEDKEADIINLVEKSVQTTKRFDALKLLVTFKWMGTEQFGQMIDYTIQLAKETGELLRRYGFDVLNDPELNAVVFRYVPECHRDDQSYVDQLNLTLQRHFYERGDLIMAKTKQRGHVYLKFTMLNPLNTIENMKTQIQKVKKAGIEFEKTQGAIRHEHVIHS | not soluble
GSDNESDEEVAGKKSFSAQEREYIRQGKEATAVVDQILAQEENWKFEKNNEYGDTVYTIEVPFHGKTFILKTFLPCPAELVYQEVILQPERMVLWNKTVTACQILQRVEDNTLISYDVSAGAAGGVVSPRDFVNVRRIERRRDRYLSSGIATSHSAKPPTHKYVRGENGPGGMIVLKSASNPRVCTFVWILNTDLKGRLPRYLIHQSLAATMFEFAFHLRQRISELGAR | soluble
MAITINIYYSGTNGGAREFAKEMIASGIVEAIRAEKGNSRYEYFFPMDDEETVLLIDSWTDQEALDKHHASPMMTRITELREKYDLHMKVERYVSDVTDPLTKDAAFIRK | not soluble
MPKQKASYEALLEEVVETLKHSPDGVNEIVESSAKYVDAANDLTKDELALISAYVKADLKEFSQSFEQSKSSPFYLMITNSIWQGLLDITDRTKVEWVELFADLEHQGLYQAGDMIGLGVLICDQCGHKTEFNHPTEIEPCSQCGGKAFSRQPLKP | not soluble
MKFSSLLQDTAAIDVFIKILTSVSKLSKKRCCVKIEKNALNFICCSGLHDGGSWFSLSIPYSSQIFRKFDMVGMNPRNEEQNLIYFELEIDSLVRVLPGGHCYLKLKLSKSQKDEPMLSVEVRNPEADIVSHQIPITIILSKYWNSYSRPSIGHRKMSISMPPPKMMSRFLHVFKNMNTRVVKLTASTSGDLRISTKIETGEIDVSFSDLQTNPSETDSQEDTAKVQLMIRNISPLFQSFANTRTRAKMNIISNRMAEFNFHNEDCVLSYIVGNVSD | not soluble
GPGSMTSTVTAVNQTQSLAAIRNFVRASVSCITYARGLCSDNAYEQRPFLGLPLRQLIPSTTESITISEWIEKGAFDALNRNYLKEMSLCVYDAACHELLESYCFGFNYTGDGERAQMTLNASQTIADGSKTTAVSQSSGGAVGIPAYRKRRCTKQEVQHLLTSILERLMDVVESLPPLLSERVLTMRLTYYDAVTPASYEPPCFAPASEHMARLYQAEVKHHVNIGSMDTSHHLFSVAIRHPLLQQIHRQMTGRTTSAVATKT | not soluble
MGSDKIHHHHHHMSTVIDSNIFNTLVSNTFYSCPLGGAIYDTEGNLIDLNKAMFAHFSLADKHDFIIEHLFNNIVLTDSLKSSLRKGDAIICEEPVTFKVEPIYTDEQGLSGYTLWLTQQGEKETDRENKLLMGQLNESRILMRQALEDGKLAAYSFSFDRFSTCDKRHCNRCFQFYGTTNTLLDKNRFICRALSSVRKPEDSLDFFYLFNKIRDEKLSSHNVTFHLRNQDGTYKMYEISGKSMDIDESGTPHVIIGSIIEKENDELAIADHQKSKDLSLLKSTFLANMTHEIRTPLNAIVGFSDMLGLEDDPEMREQYISMIKENNTALLELINDTLEMSRIESNTINWSYEDVNPLAIMHDVYEYASPRISKNVRLILDDSPNVSLHTDKHKLMLILKKLLSNALRYTEKGEIHFGYQSLYPVSVQFYVSDTGNGIPKDKLGHIFERFVQLNEFQPGTGLGLSICKGLVTAMGGTIWVNSEEGKGSTFSFKLPITPPDTIS | not soluble
MLGRALRPGWLGITRTVVKKPSCGSYFNRTFQTAINTTMPPMQEGMLSTMMMMTATATRITGTVSEPLNGSNIVMQLDSVMRKRKKKMKKHKLRKRRKREKAERRKLSQGR | soluble
MYKHILVPVDLNEQGFADKAVQLAVWHAKHSNAEIHLLNVLPGIHMSMVATYFPKDAAAQMKNDVRAQLKAFAEKHIAEEVVYKLHIAEGKPYATILDYAERLGADLIVMPSHKRSRIDKVMLGSVASKVVENSPINVMVVKPQG | not soluble
MFGRHSIIPNNQIGTASASAGEDHVSASATSGHIPYDDMEEIPHPDSIYGAASDLIPDGSQLVAHRSDGSELLVSRPPEGANQLTISFRGQVYVFDAVGADKVDAVLSLLGGSTELAPGPQVMELAQQQNHMPVVEYQSRCSLPQRAQSLDRFRKKRNARCFEKKVRYGVRQEVALRMARNKGQFTSSKMTDGAYNSGTDQDSAQDDAHPEISCTHCGISSKCTPMMRRGPSGPRTLCNACGLFWANRGTLRDLSKKTEENQLALMKPDDGGSVADAANNLNTEAASVEEHTSMVSLANGDNSNLLGDH | soluble
MKHYDSMDQELITMPISNAFLKLFSEFVDNYARNGTPSFYHWAKEQNHEVINKFFHELLEIIKSNTETFHDVSIIEHLNATVLLSAKTNPYLLDCWISFITKYNAETNSFTPIGASMHIKVGPEGTPSERIIRELKESLVMTQQAFILAQKANATEVDSLKRQLEQTKQENERLVTQNQFLKDQVRAEKTFADLNPQINNARQQLSALTELIQTLSEITNAKPKIETVSSLSIPVVTENKSELLKENSCSVASVSKEVTPAISQEPKKRPVPPPPNDTDGQALSPNIPPKEDVSIKVTIPSMPKPNSTQPAAKNSGFFSGDGFLKELNAKIKERKERPKDEPHTTPVEKKNL | not soluble
MIIQNEFNLYPSNMLPERFCYPEKYVRISNDTSLIPYIQPHNFHWWFENYGTEGAEVAYIFRNSILPDLNLIPFASNGEWEAYFDGNDVTGNSRVIVINLDNIENHEFFNSFEDWLELAIKDTW | not soluble
SSASDGFKANLVFKEIEKKLEEEGEQFVKKIGGIFAFKVKDGPGGKEATWVVDVKNGKGSVLPNSDKKADCTITMADSDFLALMTGKMNPQSAFFQGKLKITGNMGLAMKLQNLQLQPGNAKL | soluble
SLPVLAPVTKDPATSLYTIPFHDGASLVLDVAGPLVWSTCKGGQPPAEIPCSSPTCLLANAYPAPGCPAPSCGSDKHDKPCTAYPYNPVSGACAAGSLSHTRFVANTTDGSKPVSKVNVGVLAACAPSKLLASLPRGSTGVAGLANSGLALPAQVASAQKVANRFLLCLPTGGPGVAIFGGGPVPWPQFTQSMPYTPLVTKGGSPAHYISARSIVVGDTRVPVPEGALATGGVMLSTRLPYVLLRPDVYRPLMDAFTKALAAQHANGAPVARAVVAVAPFGVCYDTKTLGNNLGGYAVPNVQLGLDGGSDWTMTGKNSMVDVKQGTACVAFVEMKGVAAGDGRAPAVILGGAQMEDFVLDFDMEKKRLGFSRLPHFTGCGGL | soluble
MTNDDKCTSFFDKNYQTPEFIENKKRQAQQGRRRFLKSAAGMGALASLPALSVSAKAQTSLNELLKTLVKTDPWLTLDATLNQLLPSSPTGPSASEIRATAYLYQVMTVQPTEQDEKDFILKGVGWLNGYANSEKSANFAQLSFADKEQLLRGISNSTAGQNWLNTLLGYIFQAMLSPASYGGNPDGIGWAWLEHQAGFPMPEKGQRYFELPTRARIDLISRVNYDAKRLASSRNKSHQGTKKS | not soluble
MAHTITIVGLGNYGIDDLPLGIYKFLKTQDKVYARTLDHPVIESLQDELTFQSFDHVYEAHDQFEDVYNDIVAQLVEAANEKDIVYAVPGHPRVAETTTVKLLALAKDNTDIDVKVLGG | soluble
MGSDKIHHHHHHMDVSITQTSADKIKAGKSGLLLISDNYDAFAARVLAARGAARTLDLMYYLWHDDHTGRLLLQEVVRAAQRGVRVRMLLDDVNPRKSDAAYLALSNHPNIELKLFNPSGIRARGLMRGAEVLLRLFALTRRMHNKAWIADDNIAIVGGRNVGDAYFDAAETNFRDLDMLLLGPAVQQTAQIFQTFWVCQDAKPIAELGAAAPGSHAPYFEGREEKTESTLLSGIRDKGSIAEFISASSNVHWVERVRVISDPPEKVRGWRPRSWLMKELLPIIQSARKRVEIVSPYFIPGKKGSKILGDLVDDGVQVAVLTNSLAATDVAAVHGAYANYRKRLLRMGVQLFELQPFSRQPKISVFGSKGASLHTKAFSVDNRIGFVGSFNFDPRSVSLNSEMGVLFEDENLVAELRHRFKSEIAPEASYRLELKNEVLRWHGSDEGRLQTYTREPEAAWFRRILAALVRHLPIESQL | not soluble
MGSDKIHHHHHHMSENHWENQPGTPPDVTPECGQESDGERLYLWRQIVHWRSGTGGSQCNPLIELDKQNHWSVMNGGATGASGWLLVPTDRKKGIECRDIWTHRDPNYWNAAWGYVRSPYGSPTTTGLGINSKDKRTQDQLHIHIATFQSDAKTYLDARSPSEIATTPGDWAKKLLTVPSDSKPGQVYRVLHVKDLATDNLFNLLQSNVVSSDQMGNQTMIVIPAKSGGFYVLNSDISLSQGAAFGTGTCNHLLKCS | not soluble
MNHTSDTALLIVNLGTPEAPTAAAVRRYLGEFLSDRRVVSIPPLFWKPLLHMVILPIRGPRSASKYAKVWLQEGSPLSVYTRRIAEGLTQHLPDWRVAWAMRYGAPALTKALDALQAQQVRRIVILPLYPQYSTTTTASVQDVVEAWCKRTPQVQVECIQDYAEDPAWVAAVAASIRRHWQAHGRSEKLMFSFHGLPQRVANNGDPYPQRCQV | not soluble
MTQDRPLLAVQEALKKCFPVVEEQQGLWQSALRDCQPLLSSLSNLAEQLQAAQNLRFEDVPALRAFPDLKERLRQPSSSRCETWSAAMWSECFRSMSNTQTQLALMLSCSLQQ | soluble
MAHHHHHHMSLLRMCYRSIDITVKSRHARTFLKKRLMEQWAAKCKEPNPEKQRFYMDLAGSFLQALHTERNPKPGKVVNFQLSRQVAYEQKLADREKSAGARRVRRMSKEVKTQDH | not soluble
MGSDKIHHHHHHQRDLWNIFKLWGWTMLCCDFLAHHGTDCWTYHYSEKPMNWQRARRFCRDNYTDLVAIQNKAEIEYLEKTLPFSRSYYWIGIRKIGGIWTWVGTNKSLTEEAENWGDGEPNNKKNKEDCVEIYIKRNKDAGKWNDDACHKLKAALCYTASCQPWSCSGHGECVEIINNYTCNCDVGYYGPQCQFVIQCEPLEAPELGTMDCTHPLGNFSFSSQCAFSCSEGTNLTGIEETTCGPFGNWSSPEPTCQVIQCEPLSAPDLGIMNCSHPLASFSFTSACTFICSEGTELIGKKKTICESSGIWSNPSPICQKLDKSFSMIKEGDYN | not soluble
MNDGYKQNDIVNHEAYEELEVAEEQIIYCQEEYNDGPGTMVQVQEQTDVPCYVMEGTYFTPENIYAANQDHSVCHFCKEDLTNKRFYNHLFDHHGFTKQQCEMMKQQKRLGRPNPKRKSLHSCENCGMEFITKTGLTSHLKKDNSPCARVDEMAVGGSSVSNIVCPSYGCDKNVPTYLDLAIHVDTEHRDLSRATDSFRIRRVTFQDKAGFMKWKKQMEKSTNSEFFLRTSQKVSFAIRTMLYKCLFSNSRGQSKGRRCEQCPAFIKCCMRNHGQYEVVACFGHLGHEHPTETEIARQMRIEKYREIDALQVRESRMHNQHHMNVRPKQIIVDQYGHPTHPNDEMMILMPVGEEVVEEDAFTSVVVDDADDEIVGPRAQQETPALTRQVYIPTSNHHASSSHY | not soluble
